Measured values: patent US20250304650A1
Substitutions are numbered along the chain they refer to. Names may count otherwise. One block for each binder: values may come before it.

Key:
[1] = target: feline FcRn (FCN-F82W3, Acrobiosystems) (feline); experiment: SPR Carterra, IgG coupled, pH 6.0
[2] = target: feline FcRn (IgG receptor FcRn large subunit p51 with feline beta-2-microglobulin) (feline); experiment: SPR Biacore 8K+, IgG on C1 chip, pH 5.9, 1:1 kinetic fit
[3] = target: feline FcRn (IgG receptor FcRn large subunit p51 with feline beta-2-microglobulin) (feline); experiment: SPR Biacore 8K+, IgG on C1 chip, pH 5.9, kinetic fit (printed 1:4)

Kd [1]: 10.9 nM
koff [1]: 0.00977 s⁻¹
kon [1]: 893000 M⁻¹ s⁻¹
Kd [2]: 32.2 nM
B1: anti-NGF feline IgG1a, Fc variant S428Y, Q311V (antibody, part only; not given: Anti-NGF variable domains, not shown: another chain or arm of the molecule; small tags and cut ends)
Fc: PPEMLGGPSIFIFPPKPKDTLSISRTPEVTCLVVDLGPDDSDVQITWFVDNTQVYTAKTSPREEQFNSTYRVVSVLPILHVDWLKGKEFKCKVNSKSLPSPIERTISKAKGQPHEPQVYVLPPAQEELSRNKVSVTCLIKSFHPPDIAVEWEITGQPEPENNYRTTPPQLDSDGTYFVYSKLSVDRSHWQRGNTYTCSVYHEALHSHHTQKSLTQSPGK

Kd [3]: 5.26 nM
B2: anti-NGF feline IgG1a, Fc variant S428Y, L309V, T286E (antibody, part only; not given: anti-NGF variable domains, not shown: another chain or arm of the molecule; small tags and cut ends)
Fc: B1 Fc with T56E, L79V, V81Q

Kd [1]: 13.2 nM
koff [1]: 0.0112 s⁻¹
kon [1]: 847000 M⁻¹ s⁻¹
Kd [2]: 35.3 nM
B3: anti-NGF feline IgG1a, Fc variant S428Y, L309V (antibody, part only; not given: Anti-NGF variable domains, not shown: another chain or arm of the molecule; small tags and cut ends)
Fc: B1 Fc with L79V, V81Q
